First the molecules themselves.
B1: HDV Ribozyme (parent)
chain: GGCCGGCAUGGUCCCAGCCUCCUCGCUGGCGCCGGCUGGGCAACAUUCCGAGGGGACCGUCCCCUCGGUAAUGGCGAAUGGGACCCA

In the series the parent is B1. Briefly: self-cleavage, relative activity (ratio to wild type); higher = more cleavage; co-transcriptional.
Turning to GGCCGGCAUGGUCCCAGCCUCCUCGCUGGCGCCGGCUGGGCAACAUUCCGAGGGGACCAUCCCCUCGGUCAUGGCGAAUGGGACCCA, the self-cleavage is 0.982.
Next, GGCCGGCAUGGUCCCAGCCUCCUCGCUGGCGCCGGCUUGGCAACAUUCUGAGGGGACCGUCCCCUCGGUAAUGGCGAAUGGGACCCA: 0.172.
Next, GGCCGGCAUGGUCCCAGCCUCCUCGCUGGCGCCGGCUGGGCAACAUUCCGAGGGGUCCGUCCCCUCGGCAAUGGCGAAUGGGACCCA: 0.733; GGCCGGCAUGGUGCCAGCCUCCUCGCUGGCGCCGGCUGGGCAACAUUCCGAGGGGACCGUCCCCUCGGUAAUGGCGAAUGGUACCCA: 0.0361; GGCCGGCAUGGUCCCAGCCUCCUCGCUGACGCCGGCUGGGCAACAUUCCGAGGGGACCGUCCCCUCGGUAAUGGCGAAUGGGAGCCA: 0.102.
On to GGCCGGCAUGGUCCCAGCCUCCUCACUGCCGCCGGCUGGGCAACAUUCCGAGGGGACCGUCCCCUCGGUAAUGGCGAAUGGGACCCA, for which the self-cleavage came to 0.0583.
GGCCGGAAUGGUCCCAGCCUCCUCGCUGGCGCCGGCUGGGCAACAUUCCGAGAGGACCGUCCCCUCGGUAAUGGCGAAUGGGACCCA: the self-cleavage worked out at 0.642.
For the variant GGCCGGCAUGGUCCCAGCCUCCUCGCUGGCGCCGGCUGGGCAACAUUCCGAGGGGACCGUCCCCUGGGUAGUGGCGAAUGGGACCCA, the self-cleavage came out at 1.05.
Next, GGCCGGCCUGGUCCCAGCCUCCUCGCUGGAGCCGGCUGGGCAACAUUCCGAGGGGACCGUCCCCUCGGUAAUGGCGAAUGGGACCCA: 0.0462; GGCCGGCAUGGUCCCAGCCUCCUCGCUGGCGCCGGUUGGGCAACAUUCCGAGGGGACCGUCCCCUGGGUAAUGGCGAAUGGGACCCA: 0.767.
Next, GGCCGGCAUGGUCCCAGCGUCCUCGCUGGCGCCGGCUGGGCAACGUUCCGAGGGGACCGUCCCCUCGGUAAUGGCGAAUGGGACCCA: 0.106.
Next, GGCCAGCAUGGUCCCAGCCUCCUCGCUGGCGCCGGCUGGGCAACAUUCCGAGGGGACCGUCCCCUAGGUAAUGGCGAAUGGGACCCA: 0.173; GGCCGGCAUGGUCCCAGCGUCCUCGCUGGCGCCGGCUGGGCAACAUUCCGAGGGGACCGUCGCCUCGGUAAUGGCGAAUGGGACCCA: 0.0791; GGCCGGCAUGGUCCCAGCCUCCUCGCUGGCGCCAGCUGGGCAACAUUCCGAGGGGACCGUCCCCUCGGUGAUGGCGAAUGGGACCCA: 0.233.
Take GGCCGGCAUGGCCCCAGCCUCCUCGCUGGCGCCGGCUGGGCAACAUUCCGAGGGGACAGUCCCCUCGGUAAUGGCGAAUGGGACCCA: the self-cleavage worked out at 0.475.
For the variant GGCCGGGAUGGUCCCAGCCUCCUCGCUGGCGCCGGAUGGGCAACAUUCCGAGGGGACCGUCCCCUCGGUAAUGGCGAAUGGGACCCA, the self-cleavage was 0.111.
Next, GGCCGGCAUGGUCCCAGCCUCCUCGCUGGCGCCGGCUGGGCAACAUUCCGAGGGGACCGUCCCCUCGGUAAUGGCGAAUGGGAAUCA: 0.639; GGCCGGCAUGGUCCCAGCCUCCUCGCUGGCGCCGGCUGGGCAACAUCCCUAGGGGACCGUCCCCUCGGUAAUGGCGAAUGGGACCCA: 0.733; GGCCGGCAUGGUCCCAGCCUCCUUGCUGGCGCCGGCUGGGCAACAUUCCGAGGGGACCGUCCCCUCGAUAAUGGCGAAUGGGACCCA: 0.831.
Next, GGCCGGCAUGGUCCCAGCCUCCUCGCUGGCGCCCGCUGGGCAGCAUUCCGAGGGGACCGUCCCCUCGGUAAUGGCGAAUGGGACCCA: 0; GGCCGGCAUGGUCCCAGCCUCCUCGCUGGUGCCGGCUGGGCAACAUUCCGAGGGGACCGUCCCCUCGGUAAUGUCGAAUGGGACCCA: 0.131.
Next, GGCCGGAAUGGUCCCAGCCUCCUCGCUGGCGCCGGCUGGGCAACAUUCCGAGGGGACCGUCCCCUCGGUAAUGGCGCAUGGGACCCA: 0.115; GCCCGGCAUGGUCCCAGCCUCCUCGCUGGCGCCGGCUGGGUAACAUUCCGAGGGGACCGUCCCCUCGGUAAUGGCGAAUGGGACCCA: 0.0475; GGCCGGCAUGGUCCCAGCCUUCUCGCUGGCGCCGGCAGGGCAACAUUCCGAGGGGACCGUCCCCUCGGUAAUGGCGAAUGGGACCCA: 0.157.
As for GGCCGGCAUGGUCCCAGCCUCCUCGCUGGCGCCGGAUGGGCAACAUUCCGAGGGGACCGUCCCCUCGGUAAUGGCGAAUGGGGCCCA, the self-cleavage was found to be 0.159.
Next, GGCCGGCAUGGUCCUAGCCUCCUCGCUGGCGCCGGCUGGGCAAUAUUCCGAGGGGACCGUCCCCUCGGUAAUGGCGAAUGGGACCCA: 0.707; GGCCGGCCUGGUCCCAGCCUCCUCGCUGGCGCCGGCUGGGCAACAUUCCGAGGGGACCGUCCCCUCGGUAAUGGCGAAAGGGACCCA: 0.506.
Next, GGCCGGCAUGGUCCCAGCCUCCUCGCUGGCGCCGGGUGGGCAACAUUCCGAGGGGACCGUCCCCUCGGUAAUGGCGAAUGGGACGCA: 0.161; GGCCGGCAUGGUCCCAGCCUCCUCUCUGGCGCCGGCUGGGCAACAUUCCGAGGGGACCGUCCCCUCGGUCAUGGCGAAUGGGACCCA: 0.237; GGCCGGCAUGGUCCCAGCCUCCUCGCUGGCGCCGGCUGGGCAACAUUCGGAGGGGACCGUCCCCUCGGUAAUGGCAAAUGGGACCCA: 1.1.
Next, GGCCGGCAUGCUCCCAGCCUCCUCGCUGGCGCCGGCUAGGCAACAUUCCGAGGGGACCGUCCCCUCGGUAAUGGCGAAUGGGACCCA: 0.0519; GGCCGGCAUGGUCCCAGCCUCCUCGCUGGCGCCGGCUGGGCAACAUUCCGUGGGGACCGUCCCCUCGGUAAUGGCGAAUGAGACCCA: 0.601.
GGCCGGCAUGGUCCCAGCCUCCUCGCUGGCGCCGGCUGGGCAACAUUCCGAGGGGACCCUCACCUCGGUAAUGGCGAAUGGGACCCA: the self-cleavage stood at 0.87.
Next, GGCCGGCAUGGUCCCAGCCUCCUCGCUGGCGCCGGCUAGGCAACAUGCCGAGGGGACCGUCCCCUCGGUAAUGGCGAAUGGGACCCA: 0.116; GGCCGGCAUGGUCCCAGCCUCCUCGCUGGCGCCGGCUGGGCAACAUUCCGAGGGGACCGUCCCCUCGGUAAUGGUGAAUGGCACCCA: 0.108; GGCCGGCAUGGUCCCAGCCUCCUCGCGGGCGCCGGCUGGGCAACAUUCCGAGGGCACCGUCCCCUCGGUAAUGGCGAAUGGGACCCA: 0.779.
With GGCCGGCAUGGUCCCAGCCUCCUCGCUGGCGCCGGUUGGCCAACAUUCCGAGGGGACCGUCCCCUCGGUAAUGGCGAAUGGGACCCA, the self-cleavage was 0.0959.
Next, GGCCGGCAUGGUCCCAGCCGCCUCGCUGGCGCCGGCUGGGCAACAUUCCGAGGGGACCGUACCCUCGGUAAUGGCGAAUGGGACCCA: 0.142; GGCCGACAUGGUCCCAGCCUCCUCGUUGGCGCCGGCUGGGCAACAUUCCGAGGGGACCGUCCCCUCGGUAAUGGCGAAUGGGACCCA: 0.787.
GGCUGGCAUGGUCCCAGCCUCCUCGCUGGCGCCGGCUGGGCAACAUUCCGAGGGGACCGUCCCCUCGGUAAUGGCGAAUGGGACCUA: the self-cleavage came out at 0.889.
With GGCCGGCAUGGUCCCAGCCUCCUCCCUGGCGCCGGCUGGGCAACAUUCCGAGGGGACCGUCCCCUCGGUAAUGGCGAAUGGGUCCCA, the self-cleavage was found to be 0.0923.
Next, GGCCGGCAUGGUCCCAGCCUCCUCACUGGUGCCGGCUGGGCAACAUUCCGAGGGGACCGUCCCCUCGGUAAUGGCGAAUGGGACCCA: 0.143.
Next, GGCCGGCAUGGUCCCAGCCUCCUCGGUGGCGCCGGCUGGGCAACAUUCCGAGGGGACCGUCCCCUCGGUAAUGGCGAAUGGGAUCCA: 0.696; GGCCGGCAUGGUCCCAGCCUCCUCGCUGGCGCCGGCUGGGCAACAUUCCUAGGGGACCGUCCCCUCGGUAAUGGCGAUUGGGACCCA: 0.229; GGCCGGCAUGGUCCCAGCCUCCUCGCUGGCGCCGGCUGGGCAACAUUACGAGGGGACCGACCCCUCGGUAAUGGCGAAUGGGACCCA: 0.918.
Next, GGCCGGCAUGGUCCCAGCCUCCUCGCUCGGGCCGGCUGGGCAACAUUCCGAGGGGACCGUCCCCUCGGUAAUGGCGAAUGGGACCCA: 0.101; GGCCGGCAUGGUCCCAGCCUCCUCGCUGGCGCCGGCUGGGCAACAUUCCGAGGGGACCCUCCCCUCGGCAAUGGCGAAUGGGACCCA: 1.23.
On to GGCCCGCAUGGUCCCAGCCUCCUCGUUGGCGCCGGCUGGGCAACAUUCCGAGGGGACCGUCCCCUCGGUAAUGGCGAAUGGGACCCA, for which the self-cleavage turned out to be 0.489.
Take GGCCGGCAUGGUCCCAGCCUCCUCGCUGGCGCCGGCUGGGCAACAUACCGAGGGGACCGACCCCUCGGUAAUGGCGAAUGGGACCCA: the self-cleavage stood at 0.851.
Next, GGCCGGCAUGGUCCCAGCCUCCUCUCUGGCGCCGGCAGGGCAACAUUCCGAGGGGACCGUCCCCUCGGUAAUGGCGAAUGGGACCCA: 0.0831.
Turning to GGCCGGCAUGGUCCCAGCCUCCUCGCUGGCGCCGGUUGGGCAACAUUCCGAGGGGACCGUCCCCUCGGUAAUGACGAAUGGGACCCA, the self-cleavage came to 0.205.
On to GGCCGGCAUGGUCCCAGCCUCCUCGUUGGCGCCGGCUGGGCAACAUUCCGAGGGGACCGUCCCCUCGGUAAUGGCGAAUGGGACGCA, for which the self-cleavage is 1.22.
Next, GGCCGGCAUGAUCCCAGCCUCCUCGCUGGCGCCGGCUGGGCAACAUUCCGAGGGGACCGUCCCCUCGGUGAUGGCGAAUGGGACCCA: 0.365; GGCCGGCAUGGACCCAGCCUCCUCGCUGGCGCCGGCUGGGCAACAUUCCGAGGGGAACGUCCCCUCGGUAAUGGCGAAUGGGACCCA: 0.256.
Next, GGCCGGCAUGGUCCCAGCCUCCUCGUUGGCGCCGGCUGGGCAACAUUCCCAGGGGACCGUCCCCUCGGUAAUGGCGAAUGGGACCCA: 1; GGCCGGCAUGGUCCCAGCCUCCUCGCUGGCGCCAGCUGGGCAACAUUCCGAGGGGACCGACCCCUCGGUAAUGGCGAAUGGGACCCA: 0.204.
Next, GGUCGGCAUGGUCCCAGCCUCCUCGCUGGCGCCGGCUGGGCUACAUUCCGAGGGGACCGUCCCCUCGGUAAUGGCGAAUGGGACCCA: 0.339.
Consider GGCCGGCAUGGUCCCAGCCUCUUCGCUGGCGCCGGCUGGGCAACAUUCCGAGGGGACCGUCCCCUGGGUAAUGGCGAAUGGGACCCA, for which the self-cleavage worked out at 0.814.
For GGCCGGCAUGGUCCCAGCCUCCUCGCUGGCGCCGGCUGGGCAACAUUCCGAGGGGAGCGUCCACUCGGUAAUGGCGAAUGGGACCCA, the self-cleavage was determined as 0.956.
Next, GGCCGGCAUGGUCCCAGCAUCCUCGCUGGCGCCGGCUGGGCAACAUUCCGAGGGGACCGUCCCCGCGGUAAUGGCGAAUGGGACCCA: 0.189; GGCCGGCAUGGUCCCAGCCUCCUCGCUGGCGCCGGCUGGGCACCAUUCCGAGGGGACCGUCCCCUCGAUAAUGGCGAAUGGGACCCA: 0.268.
Next, GGCCGGCAUGGUCCCAGCCUCCUCGCUGGCGCCGGCUGGGCAACAUUCCGAGGGGCCCGUCCCCUCGGUAAUGGCGAAUGGUACCCA: 0.404.
Next, GGCAGGCAUGGUCCCAGCCUCCUCGCUGCCGCCGGCUGGGCAACAUUCCGAGGGGACCGUCCCCUCGGUAAUGGCGAAUGGGACCCA: 0.0369; GGCCUGCAUGGUCCCAGCCUCCUCGCUGGCGCCGGCUGGGCAACUUUCCGAGGGGACCGUCCCCUCGGUAAUGGCGAAUGGGACCCA: 0.277.

For the origin of these results see the RNAGym collection of RNA variant scans (doi:10.7554/elife.80360).
